How the values were obtained:
FcγRI = target: T1, FcγRI (Homo sapiens, UniProt P12314); test: FcγR Jurkat NFAT-luciferase reporter cell assay with SKBR3 target cells; format: cell-based
T1 construct: expressed in transfected cells; host or cells: Jurkat (NFAT-luciferase reporter)
Description: (§1) Cellular FcγR signaling was measured in a cell-based assay that uses SKBR3 target cells that endogenously express B7-H4 and Jurkat effector cells engineered to express FcγRI, RIIa, or RIII and an NFAT (nuclear factor of activated T cells) driven luciferase reporter gene. […] The luciferase signal is proportional to the degree of FcγR-induced effector cell activation and serves as a surrogate for ADCC (FcγRIII) or ADCP (FcγRI/IIa).
(§2) Specifically, Jurkat effector cells engineered to express FcγRI, RIIa, or RIII and an NFAT (nuclear factor of activated T cells) driven luciferase reporter gene were thawed and cultured in NFAT reporter cell medium (RPMI 1640 Medium (Gibco #11875-093) supplemented with 4% HyClone™ Fetal Bovine Serum, Super Low IgG (Gibco #A33819-01), 1× Penicillin-Streptomycin (Gibco #15140-122), 1×MEM nonessential amino acids (Gibco #11140-050), 1× L-Glutamine (Gibco #25030-081), 1× Sodium pyruvate (Gibco #11360-070), Hygromycin (Invitrogen #10687), Antibiotic G-418 sulfate solution (Promega #V8091), HEPES (Gibco #15630)). The Jurkat FcγR signaling assay was then performed as follows:
(§3) The day before the assay, target SKBR3 cells were lifted using Versene (Gibco #15040-066), washed twice with PBS, and plated at 1.2×10^4 cells per well in 90 μL RPMI 1640 containing 10% low IgG FBS and penicillin/streptomycin in black-walled 96-well plates (Corning #3603). The following day, NFAT assay buffer was prepared by adding 4 mL low IgG serum to 100 mL of RPMI 1640, mixed, and warmed to 37° C. NFAT assay buffer was used to resuspend all cells and antibody dilutions. Stock dilution plates (10×) of each antibody were prepared at 100, 30, 10, 3, 1, 0.3, 0.1, 0.03, 0.01, and 0.003 μg/mL. […] Effector cells were counted, washed twice in PBS, and resuspended at 1×10^6 cells/mL in NFAT assay buffer. […] Luminescence was measured for all samples with the Envision 96 CTG protocol (Envision plate reader, PerkinElmer) after mixing on a shaker (covered with foil) for at least 5 minutes. Background (no cells) signal was subtracted from the raw luminescence signal prior to graphing.

FcγRIII = target: T2, FcγRIII (Homo sapiens, UniProt P08637); test: as above; format: cell-based
T2 construct: expressed in transfected cells; host or cells: Jurkat (NFAT-luciferase reporter)
Description: as §1, §2, §3

FcγRIIa = target: T3, FcγRIIa (Homo sapiens, UniProt P12318); test: as above; format: cell-based
T3 construct: expressed in transfected cells; host or cells: Jurkat (NFAT-luciferase reporter)
T3 sequence (P12318 34-317): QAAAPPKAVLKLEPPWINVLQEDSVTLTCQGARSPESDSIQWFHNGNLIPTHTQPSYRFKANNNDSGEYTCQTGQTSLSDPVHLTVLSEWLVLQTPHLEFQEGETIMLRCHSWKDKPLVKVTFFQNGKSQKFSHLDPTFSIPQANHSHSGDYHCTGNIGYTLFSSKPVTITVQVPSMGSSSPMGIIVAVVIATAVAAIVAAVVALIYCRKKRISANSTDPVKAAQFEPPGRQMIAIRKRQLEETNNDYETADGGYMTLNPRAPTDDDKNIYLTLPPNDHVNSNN
Description: as §1, §2, §3

[1] = system: MDA-MB-468 tumor and PBMC co-cultures; test: Tumor/PBMC co-culture assay; format: cell-based, human; conditions: tumor/immune cell co-cultures
Description: Tumor cells were transfected with Incucyte® Cytolight red lentivirus per manufacturer's instructions and stable polyclonal cell populations expressing mKate2 (red fluorescent protein, RFP) were generated under puromycin selection. Live-cell killing assays were performed by seeding RFP+ MDA-MB-468 tumor cells in 96-well flat bottom plates (Corning #3603) at a variety of densities (3,750-10,000 cells/well) and grown overnight. The following day, PBMCs isolated from healthy donors were added at 15:1 or 25:1 effector to target (E:T) ratios and cultures were treated with the indicated small molecule drugs or ADCs. To evaluate immune cell activation, supernatants were harvested between 120 and 144 hours post treatment and MIP-1β production was evaluated by Milliplex MAP Human cytokine/chemokine/growth factor panel A (12-plex) Immunology Multiple Assay (Millipore Sigma #HCYTA-60K-12C). […] Following the final wash, cell pellets were resuspended in 200 μL staining buffer and analyzed on an NXT Attune flow cytometer (ThermoFisher). Flow cytometry data were analyzed using FlowJo software and monocyte activation was quantified by measuring the MFI of CD86 staining on CD14+ monocytes within the RFP−/live/CD19−/CD3−/CD14+ gate.

T1 sequence (P12314 16-374): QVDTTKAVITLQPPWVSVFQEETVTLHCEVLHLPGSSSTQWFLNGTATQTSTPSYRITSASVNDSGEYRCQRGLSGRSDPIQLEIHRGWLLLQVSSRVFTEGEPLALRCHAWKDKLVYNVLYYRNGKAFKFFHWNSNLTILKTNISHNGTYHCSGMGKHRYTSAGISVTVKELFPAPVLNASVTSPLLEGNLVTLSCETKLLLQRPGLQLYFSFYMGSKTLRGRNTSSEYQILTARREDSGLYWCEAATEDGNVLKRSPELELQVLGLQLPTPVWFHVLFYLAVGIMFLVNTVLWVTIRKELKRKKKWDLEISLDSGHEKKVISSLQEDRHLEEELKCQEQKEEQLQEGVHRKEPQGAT
T2 sequence (P08637 17-254): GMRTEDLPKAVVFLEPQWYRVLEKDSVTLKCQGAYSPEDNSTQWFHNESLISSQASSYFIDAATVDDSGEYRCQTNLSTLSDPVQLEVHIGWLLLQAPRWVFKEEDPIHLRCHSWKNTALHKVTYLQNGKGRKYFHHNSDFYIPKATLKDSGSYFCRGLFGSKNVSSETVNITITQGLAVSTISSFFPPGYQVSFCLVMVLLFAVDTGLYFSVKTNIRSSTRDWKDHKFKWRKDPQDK

Which FcγRI-mediated luciferase activity (FcγRI) does the source give for “SGN-B7H4V: ADC of fully human IgG1 anti-B7-H4 mAb conjugated to monomethyl auristatin E (MMAE) via a protease-cleavable valine-citrulline linker (vedotin)” here?
Its FcγRI-mediated luciferase activity is “dose-dependent increase”.

What about the FcγRIII-mediated luciferase activity (FcγRIII) of the same substance?
Its FcγRIII-mediated luciferase activity is “dose-dependent increase”.

What about the FcγRIIa-mediated luciferase activity (FcγRIIa) of the same substance?
The FcγRIIa-mediated luciferase activity was “not FcγRIIa-mediated luciferase activity”.

And the “CD86 on CD14+ monocytes” value [1]?
The value was “upregulation of the costimulatory molecule CD86”.

And the “release of MIP-1β/CCL4” value [1]?
Its value is “led to the release of the chemoattractant MIP-1β/CCL4”.
